± gives the uncertainty stated by the source.
Experiment: self-splicing fitness, log relative to wild type (ln ratio); higher = more splicing; Tetrahymena group I intron in knt gene, E. coli kanamycin selection, DiMSum; sequences stand for … in CUCUCU…GGAGGGAAAAGUUAUCAGGCAUGCACCUGGUAGCUAGUCUUUAAACCAAUAGAUUGCAUCGGUUUAAAAGGCAAGACCGUCAAAUUGCGGGAAAGGGGUCAACAGCCGUUCAGUACCAAGUCUCAGGGGAAACUUUGAGAUGGCCUUGCAAAGGGUAUGGUAAUAAGCUGACGGACAUGGUCCUAACCACGCAGCCAAGUCCUAAGUCAACAGAUCUUCUGUUGAUAUGGAUGCAGUUCACAGACUAAAUGUCGGUCGGGGAAGAUGUAUUCUUCUCAUAAGAUAUAGUCGGACCUCUCCUUAAUGGGAGCUAGCGGAUGAAGUGAUGCAACACUGGAGCCGCUGGGAACUAAUUUGUAUGCGAAAGUAUAUUGAUUAGUUUUGGAGUACUCGUGGUCG
Outline: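 A randomised library covering all eight P1ex-region intron nucleotides was built with the intron in the knt kanamycin-resistance gene on pET-22b(+) and held in E. coli BL21(DE3). Cells were grown overnight at 37°C or 30°C on LB agar, with or without 25 μg/mL kanamycin, plus 100 μg/mL carbenicillin, 50 μM IPTG and 0.2% rhamnose, and pooled colonies were amplicon-sequenced on an Illumina HiSeq 2500. DiMSum fitness is the error-weighted combination of wild-type-normalised replicate fold changes, kanamycin versus none.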

## AUUCAGCAAUAUUACGUCUG
30 °C
  self-splicing fitness (ln): -2.09 ± 0.11
37 °C
  self-splicing fitness (ln): -1.33 ± 0.11

## GAGAAGCAAUAUUACGUCGA
30 °C
  self-splicing fitness (ln): -1.54 ± 0.13
37 °C
  self-splicing fitness (ln): -1.09 ± 0.14

## UCUCAGCAAUAUUACGCAAC
30 °C
  self-splicing fitness (ln): -4.04 ± 0.39

## UUGCAGCAAUAUUACGUGGC
37 °C
  self-splicing fitness (ln): -2.93 ± 0.32

## GUGCAGCAAUAUUACGGAGG
30 °C
  self-splicing fitness (ln): -3.96 ± 0.22
37 °C
  self-splicing fitness (ln): -2.55 ± 0.25

## GACCAGCAAUAUUACGUUUC
30 °C
  self-splicing fitness (ln): -0.69 ± 0.065
37 °C
  self-splicing fitness (ln): -0.568 ± 0.083

## UGACAGCAAUAUUACGCAUA
30 °C
  self-splicing fitness (ln): -0.976 ± 0.07
37 °C
  self-splicing fitness (ln): 0.0999 ± 0.082

## AGUAAGCAAUAUUACGUGAG
30 °C
  self-splicing fitness (ln): -3.88 ± 0.15
37 °C
  self-splicing fitness (ln): -1.07 ± 0.11

## UCCCAGCAAUAUUACGGCGG
30 °C
  self-splicing fitness (ln): -2.91 ± 0.16
37 °C
  self-splicing fitness (ln): -2.21 ± 0.18

## CUGCAGCAAUAUUACGCCUC
30 °C
  self-splicing fitness (ln): -4.25 ± 0.42
37 °C
  self-splicing fitness (ln): -2.16 ± 0.5

## GUCCAGCAAUAUUACGGUGU
30 °C
  self-splicing fitness (ln): -0.42 ± 0.066
37 °C
  self-splicing fitness (ln): 0.833 ± 0.081

## UUAAAGCAAUAUUACGCGAC
30 °C
  self-splicing fitness (ln): -2.19 ± 0.15
37 °C
  self-splicing fitness (ln): -1.72 ± 0.17

## GAAGAGCAAUAUUACGGUCU
30 °C
  self-splicing fitness (ln): -2.52 ± 0.26
37 °C
  self-splicing fitness (ln): -0.469 ± 0.24

## GAUAAGCAAUAUUACGAGAG
30 °C
  self-splicing fitness (ln): -2.84 ± 0.26
37 °C
  self-splicing fitness (ln): -3.04 ± 0.4

## ACAGAGCAAUAUUACGGACA
30 °C
  self-splicing fitness (ln): -2.99 ± 0.3
37 °C
  self-splicing fitness (ln): -2.45 ± 0.25

## AUGAAGCAAUAUUACGAUCC
30 °C
  self-splicing fitness (ln): -0.571 ± 0.11
37 °C
  self-splicing fitness (ln): 0.455 ± 0.16

## UCCGAGCAAUAUUACGUGGG
30 °C
  self-splicing fitness (ln): -2.8 ± 0.17
37 °C
  self-splicing fitness (ln): -2.56 ± 0.26

## UUCCAGCAAUAUUACGGAGU
30 °C
  self-splicing fitness (ln): -4.4 ± 0.42

## ACGUAGCAAUAUUACGUGAU
30 °C
  self-splicing fitness (ln): -3.19 ± 0.14
37 °C
  self-splicing fitness (ln): -1.63 ± 0.12

## GCGCAGCAAUAUUACGGCAC
30 °C
  self-splicing fitness (ln): -0.436 ± 0.11
37 °C
  self-splicing fitness (ln): -0.634 ± 0.13

## ACGAAGCAAUAUUACGGAGA
30 °C
  self-splicing fitness (ln): -2.86 ± 0.2
37 °C
  self-splicing fitness (ln): -2.42 ± 0.22

## UCAAAGCAAUAUUACGAACU
30 °C
  self-splicing fitness (ln): -3.14 ± 0.19
37 °C
  self-splicing fitness (ln): -1.97 ± 0.23

## ACACAGCAAUAUUACGAGUG
30 °C
  self-splicing fitness (ln): -1.43 ± 0.041
37 °C
  self-splicing fitness (ln): -0.923 ± 0.057

## UCCUAGCAAUAUUACGGUGA
30 °C
  self-splicing fitness (ln): -0.297 ± 0.053
37 °C
  self-splicing fitness (ln): 0.225 ± 0.067

## UGAAAGCAAUAUUACGGAUG
30 °C
  self-splicing fitness (ln): -1.05 ± 0.09
37 °C
  self-splicing fitness (ln): -0.581 ± 0.11

## CCUCAGCAAUAUUACGAAUU
30 °C
  self-splicing fitness (ln): -2.53 ± 0.18
37 °C
  self-splicing fitness (ln): -2.13 ± 0.2

## GGAGAGCAAUAUUACGGUCC
37 °C
  self-splicing fitness (ln): -1.17 ± 0.34

## GCGGAGCAAUAUUACGCAAU
30 °C
  self-splicing fitness (ln): -3.51 ± 0.43

## AAUCAGCAAUAUUACGGGCA
30 °C
  self-splicing fitness (ln): -0.515 ± 0.091
37 °C
  self-splicing fitness (ln): -0.146 ± 0.12

## GCCUAGCAAUAUUACGGAUA
30 °C
  self-splicing fitness (ln): -1.01 ± 0.17
37 °C
  self-splicing fitness (ln): -0.705 ± 0.13

## UAUAAGCAAUAUUACGUUCC
30 °C
  self-splicing fitness (ln): -1.83 ± 0.31

## CAAUAGCAAUAUUACGUAUG
30 °C
  self-splicing fitness (ln): -1.66 ± 0.12
37 °C
  self-splicing fitness (ln): -1.7 ± 0.12

## UCUAAGCAAUAUUACGAAGU
30 °C
  self-splicing fitness (ln): -1.09 ± 0.11
37 °C
  self-splicing fitness (ln): -1.07 ± 0.15

## CUCAAGCAAUAUUACGCAAG
37 °C
  self-splicing fitness (ln): -0.876 ± 0.27

## AGAGAGCAAUAUUACGACGC
30 °C
  self-splicing fitness (ln): -2.54 ± 0.34
37 °C
  self-splicing fitness (ln): -0.3 ± 0.28

## UGCAAGCAAUAUUACGUUCA
30 °C
  self-splicing fitness (ln): 0.123 ± 0.06
37 °C
  self-splicing fitness (ln): 0.454 ± 0.088

## GCCGAGCAAUAUUACGACAC
30 °C
  self-splicing fitness (ln): -1.4 ± 0.12
37 °C
  self-splicing fitness (ln): -0.338 ± 0.18

## UUGCAGCAAUAUUACGCGGC
37 °C
  self-splicing fitness (ln): -2.28 ± 0.46

## UGGAAGCAAUAUUACGCAUC
37 °C
  self-splicing fitness (ln): -1.1 ± 0.3

## CGCUAGCAAUAUUACGCCAA
37 °C
  self-splicing fitness (ln): -0.881 ± 0.32

## UUAAAGCAAUAUUACGUUUU
30 °C
  self-splicing fitness (ln): -3.84 ± 0.2
37 °C
  self-splicing fitness (ln): -2.27 ± 0.18

## ACACAGCAAUAUUACGUGCC
30 °C
  self-splicing fitness (ln): -1.71 ± 0.12
37 °C
  self-splicing fitness (ln): -0.549 ± 0.093

Source: the supplement of paper PMC7877785
